# PMC3089910 (Analytical biochemistry, 2010)
# B1: rTp34, Tp34 from Treponema pallidum, in the presence of Zn2+ (natural protein)
# chain: CGGGGEHQHGEEMMAAVPAPDAEGAAGFDEFPIGEDRDVGPLHVGGVYFQPVEMHPAPGAQPSKEEADCHIEADIHANEAGKDLGYGVGDFVPYLRVVAFLQKHGSEKVQKVMFAPMNAGDGPHYGANVKFEEGLGTYKVRFEIAAPSHDEYSLHIDEQTGVSGRFWSEPLVAEWDDFEWKGPQW
# Experiments:
# [1] = molecular target: the molecule itself; experiment: AUC
# [2] = molecular target: human lactoferrin (hLF), iron-free, in the presence of Zn2+ (human); experiment: AUC
binder,measurement,setting,value
B1,stoichiometry N,[1],2
same,stoichiometry N,[2],2
